Two molecules from US20080166293A1 (UAB RESEARCH FOUNDATION, published 2008) can be followed below.

Assay [1] deals with T1, human transferrin receptor (hTfR) (human, UniProt P02786 1-760).
T1 construct: whole, on cells; Always presented on CEF+hTfR cells; also called CEF+hTfR cells
Briefly: synthetic peptide added to CEF+hTfR cells before HAIYPRH phage; titer of bound phage. How it is done: (§1) Binding and Competition Studies: Purified phage populations were amplified and were verified to be homogenous through DNA sequencing. Cells were prepared for binding as was described for biopanning procedures. Preparations of plaque-purified and titered phage (1×10¹¹) were incubated in serum-free Opti-MEM on either CEF or CEF+hTfR cells at 4° C. for 1 hour. The cells were washed repeatedly with Opti-MEM and bound phage were eluted with low pH buffer and subsequently titered. […] Multiple trials were completed and average titers and standard deviations determined. The titers determined on CEF+hTfR cells were divided by the titers determined on CEF cells and […] fold over control data points.

In assay [2] the target is T1, human transferrin receptor (hTfR). Briefly: synthetic peptide added to CEF+hTfR cells before … phage; titer of bound phage. How it is done:
as §1

T1 sequence (P02786 whole entry): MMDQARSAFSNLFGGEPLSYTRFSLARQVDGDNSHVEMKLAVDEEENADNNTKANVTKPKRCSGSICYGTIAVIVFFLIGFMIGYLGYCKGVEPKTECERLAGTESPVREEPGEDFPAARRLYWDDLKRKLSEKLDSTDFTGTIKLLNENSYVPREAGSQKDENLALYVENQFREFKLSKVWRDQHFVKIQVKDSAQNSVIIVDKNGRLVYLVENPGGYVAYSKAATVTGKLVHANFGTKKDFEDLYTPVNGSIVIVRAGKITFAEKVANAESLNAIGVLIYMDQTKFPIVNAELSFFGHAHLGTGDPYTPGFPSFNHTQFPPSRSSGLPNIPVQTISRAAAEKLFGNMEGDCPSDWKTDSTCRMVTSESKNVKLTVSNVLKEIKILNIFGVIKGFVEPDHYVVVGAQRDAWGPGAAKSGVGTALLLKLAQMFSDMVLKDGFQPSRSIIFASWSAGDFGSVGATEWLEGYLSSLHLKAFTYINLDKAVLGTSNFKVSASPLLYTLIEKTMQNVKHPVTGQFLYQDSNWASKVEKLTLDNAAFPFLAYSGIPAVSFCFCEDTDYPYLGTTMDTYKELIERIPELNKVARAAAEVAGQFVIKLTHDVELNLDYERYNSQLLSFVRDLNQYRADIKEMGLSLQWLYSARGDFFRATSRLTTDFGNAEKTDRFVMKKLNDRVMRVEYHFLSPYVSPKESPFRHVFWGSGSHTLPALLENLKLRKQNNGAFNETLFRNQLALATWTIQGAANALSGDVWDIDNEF

B1: HAIYPRH (Seq. ID No. 1) peptide (peptide)
peptide: HAIYPRH
notes: Synthetic peptide, HPLC purified; also called 7-mer
On to B1, for which the binding result in assay [1] is on record as “binds”.

B2: THRPPMWSPVWP (Seq. ID No. 2) peptide (peptide)
peptide: THRPPMWSPVWP
notes: Synthetic peptide, HPLC purified; also called 12-mer
Regarding B2, in assay [2], the binding result is listed as “binds”.
